From the supplement of paper PMC7877785
± gives the uncertainty stated by the source.

Assay: self-splicing fitness, log relative to wild type (ln ratio); higher = more splicing; Tetrahymena group I intron in knt gene, E. coli kanamycin selection, DiMSum; sequences stand for … in CUCUCU…GGAGGGAAAAGUUAUCAGGCAUGCACCUGGUAGCUAGUCUUUAAACCAAUAGAUUGCAUCGGUUUAAAAGGCAAGACCGUCAAAUUGCGGGAAAGGGGUCAACAGCCGUUCAGUACCAAGUCUCAGGGGAAACUUUGAGAUGGCCUUGCAAAGGGUAUGGUAAUAAGCUGACGGACAUGGUCCUAACCACGCAGCCAAGUCCUAAGUCAACAGAUCUUCUGUUGAUAUGGAUGCAGUUCACAGACUAAAUGUCGGUCGGGGAAGAUGUAUUCUUCUCAUAAGAUAUAGUCGGACCUCUCCUUAAUGGGAGCUAGCGGAUGAAGUGAUGCAACACUGGAGCCGCUGGGAACUAAUUUGUAUGCGAAAGUAUAUUGAUUAGUUUUGGAGUACUCGUGGUCG
In short: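 Six replicate transformations of E. coli BL21(DE3) with a pET-22b(+) library were grown overnight at 37°C or 30°C. The library randomised all eight P1ex-region intron nucleotides, the intron lying in the knt kanamycin-resistance gene, and plates were LB agar with or without 25 μg/mL kanamycin plus 100 μg/mL carbenicillin, 50 μM IPTG and 0.2% rhamnose. Pooled colonies were amplicon-sequenced on an Illumina HiSeq 2500, and fitness is the DiMSum error-weighted combination of wild-type-normalised replicate fold changes, kanamycin versus none.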

Row | Sequence | self-splicing fitness (ln) (30 °C) | self-splicing fitness (ln) (37 °C)
1 | UUACAGCAAUAUUACGGCCU | -0.981 ± 0.17 | -1.23 ± 0.26
2 | UUACAGCAAUAUUACGGGAG | -1.23 ± 0.071 | -0.858 ± 0.077
3 | UUACAGCAAUAUUACGGUUA | -0.071 ± 0.058 | 0.344 ± 0.07
4 | UUACAGCAAUAUUACGGUUG | -0.8 ± 0.054 | -0.338 ± 0.07
5 | UUACAGCAAUAUUACGUAGG | -1.12 ± 0.066 | -1.19 ± 0.096
6 | UUACAGCAAUAUUACGUCUU | -1.49 ± 0.069 | -0.819 ± 0.09
7 | UUACAGCAAUAUUACGUGCU | -3.78 ± 0.2 | -2.26 ± 0.23
8 | UUACAGCAAUAUUACGUGGA | -1.88 ± 0.095 | -1.41 ± 0.094
9 | UUAGAGCAAUAUUACGAAUU | -1.77 ± 0.28 | –
10 | UUAGAGCAAUAUUACGACAU | -1.894 ± 0.018 | -1.19 ± 0.036
11 | UUAGAGCAAUAUUACGACUC | -2.73 ± 0.39 | –
12 | UUAGAGCAAUAUUACGAGAU | – | -2.03 ± 0.43
13 | UUAGAGCAAUAUUACGAGCG | -0.362 ± 0.17 | -0.824 ± 0.25
14 | UUAGAGCAAUAUUACGAGGU | – | -2.29 ± 0.35
15 | UUAGAGCAAUAUUACGAUUU | -2.08 ± 0.18 | -1.88 ± 0.26
16 | UUAGAGCAAUAUUACGCAAA | -1.89 ± 0.14 | -0.682 ± 0.16
17 | UUAGAGCAAUAUUACGCCAU | -2.82 ± 0.32 | –
18 | UUAGAGCAAUAUUACGCGAU | -3.09 ± 0.19 | -2.19 ± 0.24
19 | UUAGAGCAAUAUUACGCGCG | -0.351 ± 0.16 | 0.871 ± 0.18
20 | UUAGAGCAAUAUUACGCGGG | -1.91 ± 0.13 | -0.56 ± 0.13
21 | UUAGAGCAAUAUUACGCUCU | -3.64 ± 0.47 | -1.85 ± 0.3

Row | Sequence | self-splicing fitness (ln) (30 °C) | self-splicing fitness (ln) (37 °C)
22 | UUAGAGCAAUAUUACGCUGC | – | -2.29 ± 0.37
23 | UUAGAGCAAUAUUACGCUGG | -1.75 ± 0.11 | -0.227 ± 0.18
24 | UUAGAGCAAUAUUACGGAAG | -2.58 ± 0.33 | –
25 | UUAGAGCAAUAUUACGGAUA | -2.47 ± 0.31 | –
26 | UUAGAGCAAUAUUACGGCAC | -3.59 ± 0.38 | -1.95 ± 0.38
27 | UUAGAGCAAUAUUACGGCAG | -1.01 ± 0.18 | -0.707 ± 0.24
28 | UUAGAGCAAUAUUACGGCUU | -2.83 ± 0.21 | -1.79 ± 0.22
29 | UUAGAGCAAUAUUACGUAAC | -2.76 ± 0.39 | -1.73 ± 0.49
30 | UUAGAGCAAUAUUACGUAGC | -2.12 ± 0.24 | –
31 | UUAGAGCAAUAUUACGUCCG | -2.38 ± 0.24 | -1.99 ± 0.34
32 | UUAGAGCAAUAUUACGUGAC | -3.13 ± 0.18 | -2.64 ± 0.24
33 | UUAGAGCAAUAUUACGUUAU | -3.14 ± 0.16 | -2.14 ± 0.19
34 | UUAGAGCAAUAUUACGUUCU | -4.07 ± 0.27 | -2.92 ± 0.3
35 | UUAGAGCAAUAUUACGUUGA | -2.03 ± 0.1 | -0.538 ± 0.12
36 | UUAUAGCAAUAUUACGACAA | -0.403 ± 0.12 | -0.279 ± 0.11
37 | UUAUAGCAAUAUUACGACGG | -0.906 ± 0.11 | -0.144 ± 0.16
38 | UUAUAGCAAUAUUACGAUGC | -2.99 ± 0.34 | -1.93 ± 0.32
39 | UUAUAGCAAUAUUACGCCGA | -0.888 ± 0.2 | 0.064 ± 0.25
40 | UUAUAGCAAUAUUACGGAUU | -3.1 ± 0.43 | -2.02 ± 0.29
41 | UUAUAGCAAUAUUACGGCCG | -0.763 ± 0.48 | -0.565 ± 0.37
